Assays:
[1] = target: T1, human ROR1, full length, on cells (human, UniProt Q01973 30-937); assay: flow cytometry on human cancer cell lines; 2A2 2 µg/mL; anti-human IgG (Fcγ) PE
T1 construct: whole, on cells; Ectopic on 63-12, K562, EMT-6 and HEK293 cells; also called hROR1; cell surface human ROR1
Experimental: 5×10⁵ of each cell type were added per well to 96-well plates. Plates were centrifuged (3 min, 1300 rpm) with re-suspension in buffer (PBS supplemented with 2% (v/v) of FCS). […] Plates were then incubated on ice for 30 min and washed with 200 μL of buffer prior to resuspension in 200 μL of buffer supplemented with anti-human IgG antibody (Fc gamma-specific) PE (eBioscience 12-4998-82) at a 1:250 dilution. Following 30 min incubation on ice and one washing, cells were analyzed using a FACSCalibur instrument (BD Biosciences) and data was analyzed using FlowJo analytical software (Tree Star, Ashland, Oreg.).

[2] = target: T1, human ROR1, full length, on cells; assay: cell-based or functional assay
[3] = target: T1, human ROR1, full length, on cells; assay: cell-based or functional assay; remark: listed apart in the source
[4] = target: T1, human ROR1, full length, on cells; assay: cell-based or functional assay; remark: listed apart in the source
[5] = target: T1, human ROR1, full length, on cells; assay: cell-based or functional assay; remark: listed apart in the source
[6] = target: T1, human ROR1, full length, on cells; assay: cell-based or functional assay; remark: listed apart in the source
[7] = target: T1, human ROR1, full length, on cells; assay: cell-based or functional assay; remark: listed apart in the source
[8] = target: T1, human ROR1, full length, on cells; assay: cell-based or functional assay; remark: listed apart in the source
hROR2 = target: T2, hROR2 (human, UniProt Q01974); assay: flow cytometry on T47D cells (ROR2 positive, ROR1 negative); APC goat anti-human Fcγ
T2 construct: full length, on the cell surface; also called 63-12 / hROR2; ROR2 on T47D cells
Experimental: Flow cytometry: Cells were stained using standard flow cytometry methodology. Briefly, for purified anti-ROR1 Fab (FIG. 3), 0.1-1×10⁶ cells were stained with 1000 ng/100 μL of Fab on ice for 1 h. After washing twice with ice-cold flow cytometry buffer (PBS containing 1% (v/v) BSA, 0.1% sodium azide and 1 mM EDTA), the cells were incubated with a 1:1000 dilution of a mouse anti-His tag mAb conjugated to Alexa Fluor 488 (Qiagen) in 100 μL flow cytometry buffer on ice for 30 min. For purified anti-ROR1 IgG1 (FIG. 8), 0.1-1×10⁶ cells were blocked by 4% goat serum for 15 min at room temperature and then incubated with 100 ng/100 μL of IgG on ice for 1 h. After washing twice with ice-cold flow cytometry buffer, cells were stained with a 1:500 dilution of goat anti-human IgG, Fcγ pAbs conjugated to APC (Jackson ImmunoResearch) in 100 μL flow cytometry buffer on ice for 30 min. For commercial goat anti human ROR1 polyclonal antibody (FIG. 8), 0.1-1×10⁶ cells were stained with 200 ng/100 μL of Ab on ice for 1 h. […] Finally, 4′,6-diamidino-2-phenylindole (DAPI) was added to a final concentration of 100 ng/mL to exclude dead cells from the analysis. Cells were analyzed using a FACSCalibur instrument (BD Biosciences) and FlowJo analytical software (Tree Star, Ashland, Oreg.).

T1 sequence (Q01973 30-937): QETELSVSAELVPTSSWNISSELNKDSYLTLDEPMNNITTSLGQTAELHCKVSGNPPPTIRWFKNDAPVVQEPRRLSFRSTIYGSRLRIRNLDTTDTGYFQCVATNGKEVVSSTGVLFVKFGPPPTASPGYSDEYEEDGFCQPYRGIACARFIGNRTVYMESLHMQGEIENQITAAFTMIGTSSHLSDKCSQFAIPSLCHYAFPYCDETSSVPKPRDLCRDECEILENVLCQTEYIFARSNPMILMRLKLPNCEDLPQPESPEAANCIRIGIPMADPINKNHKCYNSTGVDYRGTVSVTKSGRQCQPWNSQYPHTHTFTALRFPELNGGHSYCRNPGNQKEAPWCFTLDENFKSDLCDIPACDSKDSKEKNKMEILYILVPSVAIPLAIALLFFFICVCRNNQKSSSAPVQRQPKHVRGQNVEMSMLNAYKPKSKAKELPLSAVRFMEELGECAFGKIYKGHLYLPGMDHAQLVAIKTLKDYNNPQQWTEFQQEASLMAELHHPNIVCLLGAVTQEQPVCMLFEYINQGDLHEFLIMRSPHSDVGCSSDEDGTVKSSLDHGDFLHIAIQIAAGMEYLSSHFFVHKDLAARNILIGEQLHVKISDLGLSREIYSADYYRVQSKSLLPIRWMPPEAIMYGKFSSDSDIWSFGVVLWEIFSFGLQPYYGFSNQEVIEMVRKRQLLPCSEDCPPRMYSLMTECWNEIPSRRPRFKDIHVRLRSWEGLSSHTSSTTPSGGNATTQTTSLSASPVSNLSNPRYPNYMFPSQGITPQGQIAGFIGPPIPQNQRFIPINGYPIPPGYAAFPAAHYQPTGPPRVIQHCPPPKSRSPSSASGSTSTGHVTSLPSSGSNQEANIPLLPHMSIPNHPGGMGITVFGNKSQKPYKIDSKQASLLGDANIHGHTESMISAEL
T2 sequence (Q01974 34-943 limits assumed): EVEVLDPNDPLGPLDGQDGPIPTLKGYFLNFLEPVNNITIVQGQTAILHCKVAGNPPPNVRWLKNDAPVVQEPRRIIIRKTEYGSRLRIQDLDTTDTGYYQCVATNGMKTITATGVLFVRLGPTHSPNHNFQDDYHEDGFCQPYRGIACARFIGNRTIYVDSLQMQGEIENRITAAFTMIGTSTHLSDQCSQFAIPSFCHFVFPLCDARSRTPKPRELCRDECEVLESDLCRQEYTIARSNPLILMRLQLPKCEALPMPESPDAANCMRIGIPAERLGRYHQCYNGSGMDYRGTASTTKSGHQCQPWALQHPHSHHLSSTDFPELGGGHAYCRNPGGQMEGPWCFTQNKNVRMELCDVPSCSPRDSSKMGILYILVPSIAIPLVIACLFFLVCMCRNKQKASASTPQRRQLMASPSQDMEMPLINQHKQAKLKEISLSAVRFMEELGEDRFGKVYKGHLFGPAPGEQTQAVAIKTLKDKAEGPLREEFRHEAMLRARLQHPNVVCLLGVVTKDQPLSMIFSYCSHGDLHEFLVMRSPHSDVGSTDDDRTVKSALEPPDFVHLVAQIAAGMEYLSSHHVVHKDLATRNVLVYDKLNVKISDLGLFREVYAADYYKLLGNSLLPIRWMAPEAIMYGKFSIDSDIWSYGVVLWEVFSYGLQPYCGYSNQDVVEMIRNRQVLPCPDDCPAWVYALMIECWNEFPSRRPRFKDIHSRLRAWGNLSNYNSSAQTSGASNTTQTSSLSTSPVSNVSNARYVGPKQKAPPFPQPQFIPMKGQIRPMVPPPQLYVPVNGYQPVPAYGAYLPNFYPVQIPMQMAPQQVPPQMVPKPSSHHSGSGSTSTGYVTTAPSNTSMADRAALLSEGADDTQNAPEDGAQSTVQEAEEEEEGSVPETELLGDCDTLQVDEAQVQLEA

B1: 2A2 (mAb066) IgG (antibody)
heavy: not shown
light: DIVMTQSQKIMSTTVGDRVSITCKASQNVDAAVAWYQQKPGQSPKLLIYSASNRYTGVPDRFTGSGSGTDFTLTISNMQSEDLADYFCQQYDIYPYTFGGGTKLEIKRTVAAPSVFIFPPSDEQLKSGTASVVCLLNNFYPREAKVQWKVDNALQSGNSQESVTEQDSKDSTYSLSSTLTLSKADYEKHKVYACEVTHQGLSSPVTKSFNRGECGGGGSLPETGGWSHPQFEK
notes: Known anti-ROR1 antibody (WO 2010/124188), murine-human chimeric IgG1; tags HC: LPETG-Strep, LC: G5SLPETG-Strep; they may be variable domains only
[1]
  binding result: binds

B2: XBR1-402-G5-PNU antibody drug conjugate (other)
VH: QEQQKESGGGLFKPTDTLTLTCTASGFDISSYYMSWVRQAPGNGLEWIGAIGISGNAYYASWAKSRSTITRNTNLNTVTLKMTSLTAADTATYFCARDHPTYGMDLWGPGTLVTVSS
VL: SYELTQLPSVSVSLGQTARITCEGNNIGSKAVHWYQQKPGLAPGLLIYDDDERPSGVPDRFSGSNSGDTATLTISGAQAGDEADYYCQVWDSSAYVFGGGTQLTVTG
modifications: Gly5-EDA-PNU joined by sortase to the LPET of the C-terminal G5SLPETG tag of the full light chain; Gly5-EDA-PNU (PNU-159682 derivative) joined by sortase to the LPET of the C-terminal LPETG tag of the full heavy chain
[2]
  IC50 (cell killing of Kasumi-2 cells, luminescence): 0.0012 µg/mL
[3]
  IC50 (cell killing of 697 cells, luminescence): 0.0757 µg/mL
[4]
  IC50 of in vitro cell killing, 697 cells: 0.0176 µg/mL
[5]
  IC50 of in vitro cell killing, HS 578T cells (hROR1 status positive): 1.4 µg/mL
[6]
  IC50 of in vitro cell killing, hROR1-overexpressing EMT-6: 0.0011 µg/mL
[7]
  IC50 values on 697 cells (in vitro cell killing): 0.212 µg/mL
[8]
  IC50 of in vitro cell killing, hROR1-overexpressing EMT-6 (clone 14): 0.015 µg/mL

B3: ERR1-TOP43 chimeric rabbit/human IgG1 (antibody, V domains shown)
VH: QSLEESGGRLVTPGTPLTLTCTVSGFSLSSYWMSWVRQAPGKGLEWIGAIYGSGNTYYASWAKGRFTISKTSTTVDLKITSPTTEDTATYFCARDVHSTATDLWGPGTLVTISS
VL: SYELTQLPSVSVSLGQTARITCGGNNIGSKAVNWYQQKPGLAPGLLIYNDDERPSGVPDRFSGSNSGDTATLTISGAQAGDEADYYCQLWDSSAGAYVFGGGTQLTVTG
notes: Rabbit variable domains on human IgG1 constant regions (pCEP4), lambda light chain, from HEK 293F cells
hROR2
  binding result: no binding (tested: 100 ng/100 µL)

Source: US20220153839A1 (NBE THERAPEUTICS, published 2022)
